Results: the supplement of paper PMC12042874
± gives the uncertainty stated by the source.

Experiment: amyloid nucleation score (Sup35N fusion, yeast selection) (log enrichment); library NNK3; higher = more nucleation; inactive = no reads after selection
Summary of the method: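 The nucleation score is a DiMSum log enrichment of output over input reads, centred on the mode score of non-aggregating sequences. Sequences under 100 input reads were excluded, and reads came from Illumina sequencing of plasmid inserts. Psi-negative yeast expressing Sup35N fused to peptides of 20 random codons were induced with 100 μM copper sulfate for 24 hours and grown 7 days at 30°C on medium lacking adenine and uracil. Random libraries had three technical output replicates.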

Substance | amyloid nucleation score
LVLQLGFKKSPLRVYRSSGN | inactive
VQGRYLRRVCMRMVPLRRTD | inactive
PTDDGLSNRMKQMSGHRVLH | inactive
WMELTVIQCWMAA | inactive
GHSSSNMGNVHFKFLC | inactive
EDRSHVAYTFFSALAQVT | inactive
LWTELYVYPLNMTVMVAIF | inactive
TLCST | inactive
TKVNL | inactive
KVLMST | -0.443 ± 1.4
CKCYYGTSDFCGVGFETASR | inactive
NVSLVTVWWDNHY | inactive
RDQEHSRTFISM | inactive
QFCVQRFYGVEKKLLTLWGF | 0.088 ± 0.75
KSLTDHVNRSFLMVGVWMVK | inactive
QFKVLYPGREGDAKCHVGAR | inactive
AWYSDCRCVKPHVGRGNWCM | inactive
SSSVKEMQQPVTTTLETQST | inactive
LCRLPLDQTSKPIVTTYAGR | inactive
MSVRG | inactive
DRSIS | inactive
DWRQVYAYENSLWTVFSVWD | inactive
FYPKQYQKLSYVWWY | inactive
RLLNVLKRYLMVSLQKAGSD | inactive

Substance | amyloid nucleation score
KRKRVK | inactive
LFLKSLCCFRICTNFIKVEL | inactive
KAHRYVWVPSMPSNMNSHRR | inactive
TMTIDESTWVVSANMSYRMK | 1.37 ± 0.1
KRDHMVSLGYSLGSKQRGVG | inactive
FPIDC | 0.082 ± 0.58
LIKCPIRYDDYKRPWLAS | inactive
SKCSVGVLTRFR | inactive
RDCSSAIYKCTWCMSF | inactive
MNNVN | inactive
RSLDRRSCAMHILRGHQLKT | inactive
TLTYRSSQND | inactive
VQRGSTALVFDVSTSIFMNI | 1.57 ± 0.12
EGARSGKENGSGKPYRPLGV | 0.528 ± 0.22
DSNGYKEGVDQNSGAKNTNK | inactive
TKRWFGLCYESVKLRVRSFA | inactive
LASGRHQASVHCRVNSMMYS | inactive
FEYEKMLKAYGEGVIGSWLF | inactive
LSIVLGEDLMRCTRSDSVWK | inactive
GYKFWCSVFLVWLILHVRQS | inactive
FDTVVLCWVIGIRIGPHNAL | inactive
VVMTDHINIKGIVEPTVTTF | inactive
VTAMSMNVAQCPAYPR | inactive
IGFRWY | inactive

Substance | amyloid nucleation score
VLGCVGLCYHRYVNALGGAE | inactive
DVDRTSCGGVSVRV | inactive
EPESTRMGLSTTILPVFRCL | -0.158 ± 0.83
CSRWMWPENYRFSSEVPWYI | inactive
RLVNVNDTGVLDVSVITRCS | 0.207 ± 0.6
YLGVSILVSSYYWVRVGTGR | inactive
RLYVSKEFRSA | inactive
RRFRSLKRPAQNLSDALMSG | inactive
YSGTRVPR | 0.471 ± 0.29
TCCNQRFGVRWNIYYGSDVW | 0.742 ± 0.15
SLRPMLYTSYSS | 0.914 ± 0.17
ISCALHYDSVRKRYVVSGQL | inactive
VVMCGCSSSRMGLGPVYRTF | inactive
IRVTRIRAKVTLTTNVMWVP | 0.463 ± 0.29
QTYCYKEMFLITERWIPHSP | -0.155 ± 0.8
TTLVSNWQCSMGCCEVLWR | 3.32 ± 0.075
LSNHSSLASRSYFTNCN | inactive
TICGYI | inactive
LTRVTMGYIAEIQWNFMSKN | 1.56 ± 0.066
VTFTHKEHGRPNTRSFTKYL | inactive
EGPNTVNCPTAS | inactive
RVYGLFTLQYWYLNLYTKGR | 0.548 ± 0.36
RNVWRCSLPYHFIF | inactive
VTVSPWLFFVWNDGLCSARL | 1.05 ± 0.096

Substance | amyloid nucleation score
QSGSTLTMLQWVIPSDSKLM | inactive
KYHLGECVLSPLAPKIHWEI | inactive
CSLQNVTVGLLHSQVVSRWE | inactive
LCYCLKAVDYRLNFFHKWRH | inactive
HYRDFPSRN | inactive
PDLRLMVVCASYPGSATRAM | inactive
CLLPVSVTLTASFLCQHVRY | 0.004 ± 0.75
HLRETCCRWDVLCVDSLLV | inactive
HQISVVCGTNMRNGCFRSLC | inactive
HHLNSYFRISFI | inactive
LFMGCPVEV | -0.515 ± 0.62
DFARFIPFRPDFNFWGRLTG | inactive
MISYELVNALEIISNLIFMW | inactive
KWAWVGISCPRYRSRLGYFS | inactive
RVGSACNRNSLRKESCTPVQ | inactive
RIRFKRGVPSVVAHVVLR | inactive
CLFYIRS | inactive
SGNNMRLHTTGLVASNGLGS | inactive
HDIDGCIVRKSLYNGRGPLL | inactive
LVVSVCKK | inactive
WSKDG | inactive
GFRKWKLIVD | inactive
QATVISRVYNWAGLSDCVVV | 0.425 ± 0.47
VRTDYWVGYVIFYHIVSRGL | inactive

Substance | amyloid nucleation score
PTNWLVFYFCSGYAFNSFED | 3.31 ± 0.074
SLLTDTFFIVLWTFT | inactive
YHWSGRLL | inactive
FLDFQLFLCTHYLGRI | inactive
YCVSMANKLTCLCKGNSYPN | 2.4 ± 0.061
ANHLPWEAVWTPRWGYGCSP | inactive
ILYLITFAELCWKSRHWHLG | inactive
DHLQVHYCGRHVLGAKKFAR | inactive
YIVLMSLLFGM | inactive
YFSRLTYCSRNSSCWILYCF | inactive
IGISSGVTKICYGGTFKHMP | inactive
WMCIEGIANLESAFNRRFST | inactive
FFLVLNSACME | 0.058 ± 0.36
NVMDCSYITNVNIYSHHWDY | 2.1 ± 0.055
KCDDIGCLGQAT | inactive
FNVYMIITNFLDPL | 2.64 ± 0.062
FHCSDYADVHSILTLLLVHT | inactive
VTGHLGKG | inactive
NMVTYTMIWLWMSMAAPS | inactive
CVNKFLSVPSIDSEDFCYLV | inactive
SPRRH | inactive
HMIGRCLVGIESYRW | inactive
HVPYIHRIFIWTYK | inactive
LLKIFNNEVKITITFCLLYV | inactive

Substance | amyloid nucleation score
FLCIVSAYF | inactive
FSQWT | inactive
YALYCVFTGNSWQSVLRHRY | 1.32 ± 0.095
CVEVY | inactive
SCLCVSW | inactive
KKYVETVSS | inactive
LVVLLFVFI | inactive
CYEPVAGVFCMRIGLTVVGN | inactive
SFTSC | inactive
RHVQG | inactive
ARIPEMLWFWVGTRKRGFII | 1.74 ± 0.11
RLKLNGAQGEFSGVWLDIWA | inactive
SVMHKSRSRGFNRNDGSVRV | inactive
YCCTLVTRCSVMNTL | 2.46 ± 0.065
SHRFLDNFRFTMYTDVLGIE | inactive
RYPGVFTTQSA | inactive
DRFLLFFH | inactive
VESYPVGLY | 1.56 ± 0.068
SFSEPAHWPSCSRFVRDCVS | inactive
DSRLSAEYMVRMGKVYIDDS | inactive
FLRRLSRKTKDMDSSRGMCC | inactive
IIELYT | inactive
LSLAS | inactive
PCFLMGPVIPIVFALYKILV | inactive

Substance | amyloid nucleation score
NDIITLSQTLVELSPFGWLS | inactive
CVAAV | inactive
CYFRVAHVLDSRILSRPGML | inactive
QRVWRMMQNLSRW | inactive
IFRSHMQSLGK | inactive
VVGNSCVYPVGPRFAE | -0.454 ± 0.9
SSGAQQCILISSLVLNEDWL | -0.46 ± 0.76
YLFHLLSDRRCEDMCVVGIK | inactive
FPFKV | inactive
GDYGCFSLMQTHTEEEILMR | inactive
KDYLLSSYCEECHDHSSSEL | inactive
EVSGYINMR | inactive
KNQMVFVINY | 2.68 ± 0.053
YETSVH | inactive
NKLIRSEVSLLAMCMCSGNG | inactive
NSFVVTCLVSVGKRGKSRWL | 1.25 ± 0.13
SVYVNAYEHNKGGFTRNIHI | inactive
FILQGFPE | inactive
